Target: T cell surface antigens CTLA4 and PD-1
Assay: flow cytometry, PHA-stimulated CD4+ T cells, antibody 100 nM (PBS 8.39)

MFI (fluorescence intensity): 10.2
Substance: hIgG (control) (antibody)

From patent US20260274952A1
